Assay results published in patent publication US6447996.

Target: human galanin receptor GalR1 (human) (UniProt P47211)
Assay: competition with 5x10^-11M [125I]galanin on membranes of Cos1 cells transfected with GalR1; Cheng-Prusoff

Chain of UniProt P47211 (P47211 other isoform, or with tags, fused parts or gaps): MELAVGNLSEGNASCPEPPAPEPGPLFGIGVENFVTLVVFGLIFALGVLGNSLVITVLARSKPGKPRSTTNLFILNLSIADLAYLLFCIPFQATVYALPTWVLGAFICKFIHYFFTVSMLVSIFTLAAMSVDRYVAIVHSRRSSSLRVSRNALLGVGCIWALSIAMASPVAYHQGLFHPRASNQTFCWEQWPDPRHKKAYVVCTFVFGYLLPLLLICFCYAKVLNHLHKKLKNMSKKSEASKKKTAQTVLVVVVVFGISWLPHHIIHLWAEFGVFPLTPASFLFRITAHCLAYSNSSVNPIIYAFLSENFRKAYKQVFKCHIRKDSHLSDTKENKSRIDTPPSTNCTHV

## galanin 2-29 (peptide)
  Ki: 115 nM
